Where a chain is given by its changes, count along the chain named. Read-outs that look alike come from different tables or passages of the source.

In test [1] the target is T1, human IL-1α (human, UniProt P01583 113-271).
T1 construct: also called IL-1alpha; hIL-1α
T1 sequence (looked up): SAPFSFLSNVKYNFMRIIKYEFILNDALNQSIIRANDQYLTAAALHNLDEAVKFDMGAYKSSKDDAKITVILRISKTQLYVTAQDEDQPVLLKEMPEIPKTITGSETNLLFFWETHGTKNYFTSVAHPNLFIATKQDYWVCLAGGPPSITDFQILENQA
In words: BIAcore (SPR).

For test [2], the target named is T1, human IL-1α. In words: cell-based or functional assay.
Test [3] deals with T1, human IL-1α. Put plainly: cell-based or functional assay. This is another data set of the same source.
For test [4], the target named is T1, human IL-1α. Put plainly: Table 62 IC50; RBA presumed.
The target of test [5] is T2, human IL-1α (human, UniProt P01583 113-271).
T2 sequence (looked up): T1 sequence (looked up)
Put plainly: cell-based or functional assay. This is another data set of the same source.

Test [6] concerns the target human IL-1β (human, UniProt P01584 117-269). In words: cell-based or functional assay.
Test [7] has as its target T1, human IL-1α. In words: Table 62 KD; BIAcore presumed.
Test [8] addresses T2, human IL-1α. Put plainly: cell-based or functional assay. The source holds these as a separate data set.

B1: ABT1-86 (other)
VH: EVQLLESGGGLVQPGGSLRLSCAASGFTFDRYIMAWVRQAPGKGLEWVSSITPSGAATYYADSVKGRFTISRDNSKNTLYLQMNSLRAEDTAVYYCAEEPADRYSTWTFDYWGQGTLVTVSS
notes: VH dAb
A word on the Kd: it is the constant that tells how readily two partners part at equilibrium. A lower Kd goes with higher affinity. What is called IC50 is the concentration that inhibits the measured activity by half. A higher IC50 goes with weaker potency in that assay. In test [1], B1 came in with a Kd of 110 nM. Besides, the “MRC5 ND50” value in test [2] turned out to be 900 nM. This molecule came in with an ND50 in test [3] of 900 nM. The molecule also returned a 50% inhibitory concentration (IC50) in test [4] of 1000 nM.

B2: Fab ABT1-122/ABT2-108 (Fab, V domains shown)
VH: EVQLLESGGGLVQPGGSLRLSCAASGFTFAEYTMMWVRQAPGKGLEWVSRIGQDGKNTYYADSVKGRFTISRDNSKNTLYLQMNSLRAEDTAVYYCAKYTGRVGVHHLFDYWGQGTLVTSS
VL: DIQMTQSPSSLSASVGDRVTITCRASQPIWTELNWYQQKPGKAPKLLIYGSSSLQSGVPRFSGSGSGTDFTLTISSLQPEDFATYYCQQFAYFPATFGQGTKVEIKR
With B2, in test [5], the “Fab IL-1α ND10” value was 3 nM. The “Fab IL-1β ND10” value in test [6] is 50 nM.

B3: Fab ABT1-122/ABT2-65 (Fab, V domains shown)
VH: EVQLLESGGGLVQPGGSLRLSCAASGFTFEDYQMGWVRQAPGKGLEWVSSISAMGNRTYYADSVKGRFTISRDDSKNTLYLQMNSLRAEDTAVYYCAKNLVRTQSKMWMFDYWGQGTLVTVSS
VL: B2 VL
On to B3, for which, in test [5], the “Fab IL-1α ND10” value came to 40 nM. In addition, in test [6], the “Fab IL-1β ND10” value is 1500 nM.

B4: Fab ABT1-141/ABT2-108 (Fab, V domains shown)
VH: B2 VH
VL: DIQMTQSPSSLSASVGDRVTITCRASQWIQKQLAWYQQKPGKAPKLLIYSSSYLQSGVPRFSGSGSGTDFTLTISSLQPEDFATYYCQQHLRVPFTFGQGTKVEIKR
Take B4: the “Fab IL-1α ND10” value in test [5] came out at 10 nM. Also, the “Fab IL-1β ND10” value in test [6] is 15 nM.

B5: ABT1-98 (other)
VH: EVQLLESGGGLVQPGGSLRLSCAASGFTFDGYIMSWVRQAPGKGLEWVSTISPLGSVTYYADSVKGRFTISRDNSKNTLYLQMNSLRAEDTAVYYCAKKGPWFDYWGQGTLVTVSS
notes: VH dAb
Molecule B5 registered an equilibrium dissociation constant (Kd) in test [1] of 13 nM. The “MRC5 ND50” value in test [2] worked out at 30 nM. The molecule also came in with an ND50 in test [3] of under 100 nM.

B6: Fab ABT1-95/ABT2-13 (Fab, V domains shown)
VH: EVQLLESGGGLVQPGGSLRLSCAASGFTFRDYVMYWARQAPGKGLEWVSRIDPMGSSTYYADSVKGRFTISRDNSKNTLYLQMNSLRAEDTAVYYCAKPEGNFDYWGQGTLVTVSS
VL: DIQMTQSPSSLSASVGDRVTITCRASQPIHGNLRWYQQKPGKAPKLLIYNISNLQSGVPSRFSGSGSGTDFTLTISSLQPEDFATYYCQQGYRWPVTFGQGTKVEIKR
Turning to B6, the “Fab IL-1α ND10” value in test [5] was 200 nM. Also, the “Fab IL-1β ND10” value in test [6] was 400 nM.

B7: ABT1-141 (other)
VL: DIQMTQSPSSLSASVGDRVTITCRASQWIQKQLAWYQQKPGKAPKLLIYSSSYLQSGVPSRFSGSGSGTDFTLTISSLQPEDFATYYCQQHLRVPFTFGQGTKVEIKR
notes: VK dAb
Regarding B7, the Kd in test [1] is 300 nM. Besides, in test [2], the “MRC5 ND50” value is 50 nM. In test [3], this molecule showed an ND50 of 142 nM.

B8: ABT1-95-13 (other)
VL: B6 VL with H30V, G31R, N50S, I51S, N53Y, Q55E, S56R, Y87H
notes: VK dAb
B8 registered an ND50 in test [3] of 0.12 nM. In test [4], this molecule registered a half-inhibitory concentration (IC50) of 0.3 nM. The molecule further came in with a Kd in test [7] of 0.9 nM.

B9: ABT1-95-14 (other)
VL: B6 VL with H30V, G31K, N50S, I51S, N53Y, Q55E, S56R, Y87H
notes: VK dAb
On to B9, for which the ND50 in test [3] is 0.25 nM. In test [4], this molecule gave an IC50 of 0.3 nM. The Kd in test [7] was determined as 1.2 nM.

B10: ABT1-95-11 (other)
VL: B6 VL with H30Q, K42I, N50S, I51S, N53Y, Q55E, S56R, Q79H, F83L, Y87H
notes: VK dAb
Molecule B10 displayed an ND50 in test [3] of 0.3 nM. In addition, in test [4], the IC50 is 0.9 nM. Binding in test [7] was put at a Kd of 1.1 nM.

B11: ABT1-6-23 (other)
VH: EVQLLESGGGLVQPGGSLRLSCAASGFTFVRYDMAWVRQAPGKGLEWVSSIYKSGALTSYADSVKGRFTISRDNSKNTLYLQMNSLRAEDTAVYYCAKGWASFDYWGQGTLVTVSS
notes: VH dAb
With B11, the Kd in test [1] turned out to be 61 nM; in test [7], 6 nM. Further, the ND50 in test [3] came to 30 nM. Moreover, the IC50 in test [4] is 30 nM.

B12: Fab ABT1-6-23/ABT2-46 (Fab, V domains shown)
VH: EVQLLESGGGLVQPGGSLRLSCAASGFTFVRYDMAWVRQAPGKGLEWVSSIYKSGALTSYDSVKGRFTISRDNSKNTLYLQMNSLRAEDTAVYYCAKGWASFDYWGQGTLVTVSS
VL: DIQMTQSPSSLSASVGDRVTITCRASQSIIEWLSWYQQKPGKAPKLLIYRTSVLQSGVPSRFSGSGSGTDFTLTISSLQPEDFATYYCQQNEFWPFTFGQGTKVEIKR
Turning to B12, in test [5], the “Fab IL-1α ND10” value is 4 nM. Besides, the “Fab IL-1β ND10” value in test [6] is 150 nM.

B13: Fab ABT1-98/ABT2-76 (Fab, V domains shown)
VH: B5 VH
VL: B12 VL with I30D, E31R, S34A, T51G, V53I, N91V, E92A, F96P
As for B13, the “Fab IL-1α ND10” value in test [5] was 100 nM. Also, in test [6], the “Fab IL-1β ND10” value worked out at 1500 nM.

B14: Fab ABT1-6-23/ABT2-13 (Fab, V domains shown)
V domain 1: B12 VH
V domain 2: B6 VH
For the molecule B14, the “Fab IL-1α ND10” value in test [5] amounted to 40 nM. In test [6], the “Fab IL-1β ND10” value was over 500 nM.

B15: ABT1-96 (other)
VH: EVQLLESGGGLVQPGGSLRLSCAASGFTFNQYNMFWVRQAPGKGLEWVSVISGSGRFTYYADSVKGRFTISRDNSKNTLYLQMNSLRAEDTAVYYCAKGWWRRDPPFDYWGQGTLVTVSS
notes: VH dAb
Take B15: binding in test [1] was characterised by a dissociation constant (Kd) of 1.1 nM. Further, the “MRC5 ND50” value in test [2] was 11 nM. For the same molecule, in test [3], the ND50 came to 17 nM.

B16: Fab ABT1-96/ABT2-42 (Fab, V domains shown)
VH: EVQLLESGGGLVQPGGSLRLSCAASGFTFNQYNMFWVRQAPGKGLEWVSVISGSGRFTYADSVKGRFTISRDNSKNTLYLQMNSLRAEDTAVYYCAKGWWRRDPPFDYWGQGTLVTVSS
VL: DIQMTQSPSSLSASVGDRVTITCRASQYIEKWLTWYQQKPGKAPTLLIYRGSLLQSGVPRFSGSGSGTDFTLTISSLQPEDFATYYCQQTEYWPFTFGQGTKVEIKR
On to B16, for which the “Fab IL-1α ND10” value in test [5] is 3 nM. Besides, the “Fab IL-1β ND10” value in test [6] turned out to be 10 nM.

B17: Fab ABT1-96/ABT2-13 (Fab, V domains shown)
V domain 1: B16 VH
V domain 2: B6 VH
In the case of B17, in test [5], the “Fab IL-1α ND10” value is 0.9 nM. Moreover, in test [6], the “Fab IL-1β ND10” value is 80 nM.

B18: Fab ABT1-96/ABT2-46 (Fab, V domains shown)
VH: B16 VH
VL: B12 VL
In the case of B18, in test [5], the “Fab IL-1α ND10” value is 6 nM. Besides, the “Fab IL-1β ND10” value in test [6] amounted to 400 nM.

B19: ABT1-95-A3 (other)
VL: DIQMTQSPSSLSASVGDRVTITCRASKPGVRNMRWYQQKPGKAPKLLIYSVSYLEPGVPSRFSGSGSGTDFTLTISSLQPEDFATYHCLQGYRWPPTFGQGTKVEIKR
Consider B19, for which the “MRC5 ND50” value in test [8] was 11 pM.

B20: ABT1-95-A5 (other)
VL: B19 VL with K27R, P28T, G29P, M33L, V51R, Y53F
For B20, the “MRC5 ND50” value in test [8] was 16 pM.

B21: ABT1-95-181 (other)
VL: B19 VL with G29I
Take B21: the “MRC5 ND50” value in test [8] amounted to 14 pM.

B22: ABT1-95-A6 (other)
VL: B19 VL with S50A, V51K, L89K, P96V, T97Q
As to B22, the “MRC5 ND50” value in test [8] stood at 24 pM.

B23: Fab ABT1-141/ABT2-65 (Fab, V domains shown)
VH: B3 VH
VL: B4 VL
For the molecule B23, the “Fab IL-1α ND10” value in test [5] turned out to be 80 nM. Also, in test [6], the “Fab IL-1β ND10” value was 300 nM.
